Legend:
[1] = target: human β2-adrenergic receptor (ADRB2) in nanodiscs, GRK2-phosphorylated, DNA barcoded (human) (UniProt P07550); assay: polony co-localization, β-arr2 titration on isoproterenol-saturated phosphorylated ADRB2, one-site-specific fit
[2] = target: human β2-adrenergic receptor (ADRB2) in nanodiscs, GRK2-phosphorylated, DNA barcoded (human) (UniProt P07550); assay: polony co-localization at varied β-arr2 concentrations; reference is ADRB2 without GRK2-mediated phosphorylation

A Kd [1] of 0.95 nM and a fold increase of the average co-localization ratios after the phosphorylation [2] of 3 to 11 fold were found for “β-arr2-TolA-HaloTag (β-arrestin-2, DNA barcoded) (from UniProt P19934 131-225)” in this work.
